# Experimental data as given in US11666658B2, “Rifamycin analogs and antibody-drug conjugates thereof” (Regeneron Pharmaceuticals, Inc., priority 2018, dated 2023).
# Numbering of substitutions follows the chain as printed. Names and notes keep the numbering of the source.
# T1: Ac-LDL binding to His9-hMSR1 (Homo sapiens, UniProt P21757)
# T1 construct: human MSR1 extracellular domain expressed with a N-terminal nonahistidine tag; purchased R&D Systems 2708-MS
# T1 sequence (P21757 77-451 limits assumed): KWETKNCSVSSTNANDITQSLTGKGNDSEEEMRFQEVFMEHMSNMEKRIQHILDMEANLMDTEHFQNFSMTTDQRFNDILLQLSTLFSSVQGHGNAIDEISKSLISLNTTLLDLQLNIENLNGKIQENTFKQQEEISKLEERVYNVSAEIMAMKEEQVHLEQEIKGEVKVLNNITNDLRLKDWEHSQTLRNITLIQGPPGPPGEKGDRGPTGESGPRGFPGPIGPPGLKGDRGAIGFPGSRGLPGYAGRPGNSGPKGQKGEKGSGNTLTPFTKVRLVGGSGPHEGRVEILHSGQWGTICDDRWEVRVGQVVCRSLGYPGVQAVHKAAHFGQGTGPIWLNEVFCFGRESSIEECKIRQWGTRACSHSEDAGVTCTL
# T2: MSR1-mediated DiI-AcLDL uptake in HEK293.Myc.hMSR1 cells (Homo sapiens, UniProt P21757)
# T2 construct: expressed in transfected cells; host or cells: HEK293 (lentiviral transduction, hygromycin selection)
# T2 sequence (P21757 1-451): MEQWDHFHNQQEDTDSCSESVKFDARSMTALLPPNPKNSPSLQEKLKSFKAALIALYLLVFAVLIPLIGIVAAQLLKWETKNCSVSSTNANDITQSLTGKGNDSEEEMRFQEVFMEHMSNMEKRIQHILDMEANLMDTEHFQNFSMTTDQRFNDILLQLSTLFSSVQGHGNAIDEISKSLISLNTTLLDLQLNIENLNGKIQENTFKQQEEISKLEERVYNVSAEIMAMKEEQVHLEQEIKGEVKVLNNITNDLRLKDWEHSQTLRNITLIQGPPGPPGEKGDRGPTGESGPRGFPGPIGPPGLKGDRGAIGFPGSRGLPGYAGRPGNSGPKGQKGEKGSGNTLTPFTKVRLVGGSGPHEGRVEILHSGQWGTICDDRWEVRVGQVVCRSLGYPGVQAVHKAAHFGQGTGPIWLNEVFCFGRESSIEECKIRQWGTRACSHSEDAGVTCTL
# T3: Ox-LDL binding to His9-hMSR1 (Homo sapiens, UniProt P21757)
# T3 construct: human MSR1 extracellular domain expressed with a N-terminal nonahistidine tag; purchased R&D Systems 2708-MS
# T3 sequence (P21757 77-451 limits assumed): T1 sequence (P21757 77-451 limits assumed)
# T4: biot-AGE-BSA binding to His9-hMSR1 (Homo sapiens, UniProt P21757)
# T4 construct: human MSR1 extracellular domain expressed with a N-terminal nonahistidine tag; purchased R&D Systems 2708-MS
# T4 sequence (P21757 77-451 limits assumed): T1 sequence (P21757 77-451 limits assumed)
# B1: H1H21227N-N297D: "The 21227N antibody was also produced as a third version with a N297D mutation" (antibody, V domains shown)
# VH: QVQLVQSGAEVKKPGASVKVSCKVSGYTLTELSIHWVRQVPGKGLEWMGGFDPEEGETIFAQEFRDRVTLTEDTSPDTAYMELSSLKSEDAAVYYCTTPRYCNNGICYDYWGQGTLVTVSS
# VL: DIQMTQSPSSLSASVGDRVTITCRASQSISNYLNWYQQKPGKAPKLLIYTASSLQSGVPSRFSGSGSGTDFTLTISSLQTEDFATYYCQQSYSNFPITFGQGTRLEIKR
# B2: H1H21231N: "Three anti-MSR1 antibodies ... (21227N, 21231N, 21234N) were produced with the original human Fcγ portion" (antibody, V domains shown)
# VH: EVQLVESGGGLVQPGGSLRLSCAASGFTFSDHYMDWVRQAPGKGLEWVGRTRNKANSHTTEYTASVTGRFTISRDDSRNSLYLQMNSLKTEDTAVYYCVRAGIIGTLFDYWGQGTLVTVSS
# VL: B1 VL with S7F, N31S, Y32F, Y36F, L46F, T50A, T80P, N94S, F95P
# B3: H1H21231N-N297Q: modified version of "21231N (H1H21231N-N297Q) anti-MSR1 antibodies" with "a N297Q single point mutation" (antibody, V domains shown)
# VH: B2 VH
# VL: B1 VL with S7F, N31S, Y32F, Y36F, L46F, T50A, T80P, N94S, F95P
# B4: H1H27734P-N297Q: one of "Twelve anti-MSR1 antibodies" that "bound to parental HEK293 cells"; human IgG1 Fc with N297Q mutation (antibody, V domains shown)
# VH: EVQLVESRGGLVQPGGSLRLSCAASGFTFSSYAMSWVRQAPGKGLEWVSAISGSGGSTFYADSVKGRFTISRDNSKNTVYLQMNSLRAEDTAVYYCAKALVLRFLEWLGDYWGQGTLVTVSS
# VL: DIQMTQSPSTLSASVGDRVTITCRASQSISSWLAWFQQKPGKAPKLLIYKASSLESGVPSRFSGSGSGTEFTLTISSLQPDDFATYYCQQYKSYWTFGQGTKVEIKR
# B5: H2aM21229N: one of "Twelve anti-MSR1 antibodies"; "an 'H2aM' antibody has a mouse IgG2a Fc" (antibody, V domains shown)
# VH: EVQLVESGGGLVKPGGSLRLSCAASGFTFSRYSMNWVRQAPGKGLEWVSSISSSSSYIYYGDTVKGRFTISRDNAKKSLYLQMNSLRAEDTAVYYCVRDRGQLVLYFDYWGQGTLVTVSS
# VL: DIQMTQSPASLSTSIRDRVTITCRASLSISSFLNWFQQRPGKAPKLLIYVASNLQSGVPSRFSDSGSGTDFTLTISSLQPEDFATYYCQQNYSTPPITFGQGTRLEIK
# B6: H1H27739P-N297Q: anti-MSR1 antibody; "antibodies H1H27739P-N297Q and H1H27734P-N297Q showed no inhibition of DiI-AcLDL uptake" (antibody, V domains shown)
# VH: EVQLVESGGGLVQPGGSLRLSCTASGFTFSSYAMSWVRQAPGKGLEWVSAISGTGSSTYFTDSVKGRFAISRDNSKNTLYLQMNSLRAEDTAVYYCAKDGEWLSTVTLFDYWGQGTLVTVSS
# VL: EIVMTQSPATLSVSPGERATLSCRASQSVSSNLAWYQQKPGQAPRLLIYGASTRATGIPARFSGSGSGTDFTLTISSLQSEDFALYYCQQYFIWPPHPTFGPGTKVDIKR
# Target: T1, Ac-LDL binding to His9-hMSR1
# Experiment: Competition sandwich ELISA, Ac-LDL
# Details: anti-MSR1 antibody 100 nM, 50 pM Ac-LDL
# Procedure: (§1) The ability of anti-MSR1 antibodies disclosed herein to block the binding of various ligands to human MSR1 was measured using three competition sandwich ELISA assays. The ligands used in the assays were: (1) acetylated LDL (Ac-LDL), (2) oxidized LDL (Ox-LDL), and (3) advanced glycation end-products of bovine serum albumin (AGE-BSA).
# (§2) Anti-MSR1 antibodies or isotype control antibodies were serially diluted as appropriate for each tested ligand and added in duplicate for each serial dilution set to microtiter plates coated with His9-hMSR1. Buffer alone was also added to wells on each coat. […] This assay was conducted in four different assay runs.
# (§3) Data analysis was performed using a sigmoidal dose-response model within Prism™ software (GraphPad). Percent blockade at maximum concentration of the antibody tested in each assay was calculated as an indicator of the ability of the antibodies to block the binding of Ac-LDL, Ox-LDL or biot-AGE-BSA to His9-hMSR1 on the plate relative to the baseline of the assay. In the calculation, binding signal of the same concentrations of Ac-LDL, Ox-LDL, or biot-AGE-BSA used for the assays in the absence of antibody was referenced as 100% binding or 0% blocking, while the baseline of the assay, defined as binding signal of the sample of buffer without MSR1 ligands or antibody, was referenced as 0% binding or 100% blocking. The maximum percent blockade at the highest concentration of antibody tested in each assay are reported for all antibodies.
row,% Blocking of Ac-LDL binding to His9-hMSR1,Molecule
1,101%,B1
2,−62%,B2
3,−60%,B3

# Target: T2, MSR1-mediated DiI-AcLDL uptake in HEK293.Myc.hMSR1 cells
# Experiment: Ligand uptake assay, DiI-AcLDL
# Type: cell-based
# Details: not given
# Procedure: The resulting cell line, referred to here as “HEK293.Myc.hMSR1”, was selected and maintained in DMEM containing 10% FBS, NEAA, penicillin/streptomycin, L-glutamine, and 100 μg/mL hygromycin.
# After 30 minutes, either oxidized or acetylated low-density lipoprotein (LDL) labeled with 1,1′ dioctadecyl-3,3,3′,3′-tetramethylindocarbocyanine perchlorate (referred to as “DiI-OxLDL” or “DiI-AcLDL,” respectively) was added to the cells at a constant concentration of 10 μg/mL. […] Results were analyzed using nonlinear regression (4-parameter logistics) with the Prism 7 program to obtain EC50 and IC50 values. The percentage of inhibition was calculated with the Relative Fluorescent Unit (RFU) values by using the following equation: […]
# In the equation, “RFUBaseline” is the fluorescence value from the cells treated with 10 μg/mL ligand without antibodies, “RFUInhibition” is the minimum fluorescence value with for a particular antibody with 10 μg/mL ligand, and “RFUBackground” is the fluorescence value from cells without any ligand or antibodies.
row,inhibition of DiI-AcLDL uptake (in words),Molecule
1,no inhibition of DiI-AcLDL uptake,B4
2,no inhibition of DiI-AcLDL uptake,B5
3,no inhibition of DiI-AcLDL uptake,B6

# Same assay, conditions: 10 μg/mL DiI-AcLDL
row,"IC50, Dil-Acetylated LDL",Molecule
1,no inhibition,B4
2,no inhibition,B5
3,no inhibition,B6

# Same assay, conditions: maximum inhibition of uptake, 10 μg/mL DiI-AcLDL
row,"% Inhibition, Dil-Acetylated LDL",Molecule
1,no inhibition,B4
2,no inhibition,B5
3,no inhibition,B6

# Target: T3, Ox-LDL binding to His9-hMSR1
# Experiment: Competition sandwich ELISA, Ox-LDL
# Details: anti-MSR1 antibody 500 nM, Ox-LDL 10 nM
# Procedure: as §1, §2, §3
row,% Blocking of Ox-LDL binding to His9-hMSR1,Molecule
1,99%,B1
2,22%,B2
3,26%,B3

# Target: T4, biot-AGE-BSA binding to His9-hMSR1
# Experiment: Competition sandwich ELISA, biot-AGE-BSA
# Details: anti-MSR1 antibody 300 nM, 400 pM biot-AGE-BSA
# Procedure: as §1
# For the assay, recombinant monomeric human MSR1 protein comprised of a portion of the human MSR1 extracellular domain expressed with a N-terminal 9-Histidine tag (SEQ ID NO: 688) (His9-hMSR1; R&D Systems, Cat #2708-MS) was coated at a concentration of […] in PBS on a 96-well microtiter plate overnight at 4° C. for use in competition ELISA assays with Ac-LDL, Ox-LDL, or biotinylated-AGE-BSA (“biot-AGE-BSA”). […] Anti-MSR1 antibodies or isotype control antibodies were serially diluted as appropriate for each tested ligand and added in duplicate for each serial dilution set to microtiter plates coated with His9-hMSR1. Buffer alone was also added to wells on each coat. After 1 hour incubation at room temperature, without wash, a final constant concentration of 50 pM Ac-LDL (Life Technologies/ThermoFisher Scientific, Cat #L-35354), 5 nM or 10 nM Ox-LDL (Alfa Aesar, Cat #J65591), or 400 pM biot-AGE-BSA (R&D Systems, Cat #BT4127) were added to plates with His9-hMSR1, and the plates were incubated for an additional 1 hour at room temperature. (Concentrations of Ac-LDL, Ox-LDL and biot-AGE-BSA for antibody inhibition assays were selected from the approximate midway point within the linear portion of individual binding curves of Ac-LDL, Ox-LDL or biot-AGE-BSA to plate-coated His9-hMSR1.) Wells were washed, and plate-bound Ac-LDL or Ox-LDL were detected with anti-LDL rabbit antibody (Alfa Aesar, Cat #J64398) in combination with anti-rabbit IgG (H+L) specific donkey polyclonal antibodies conjugated with horseradish peroxidase (HRP) (JacksonImmunoResearch, Cat #711-035-152) and biot-AGE-BSA was detected with a streptavidin-HRP (ThermoFisher Scientific, Cat #N200). Plates were developed using TMB substrate solution (BD Biosciences, Cat #51-2606KC & Cat #51-2607KC) according to manufacturer's recommendation and absorbance at 450 nm was measured on a Victor™ Multilabel Plate Reader (PerkinElmer™). This assay was conducted in four different assay runs.
# as §3, with “antibodies. Negative percent blockade numbers reflected higher MSR1 ligands binding to plate coated His9-hMSR1 in the presence of antibodies.” for “antibodies.”
row,% Blocking of biot-AGE-BSA binding to His9-hMSR1,Molecule
1,97%,B1
2,−44%,B2
3,−50%,B3
